Measured values as given in US20200199214A1 (Hoffmann-La Roche, published 2020).
Positions count from the first letter of the chain named.

T1: cynomolgus IL-1 beta (Sino Biological 90010-CNAE) (cynomolgus, UniProt P79182 117-268)
T1 sequence (looked up): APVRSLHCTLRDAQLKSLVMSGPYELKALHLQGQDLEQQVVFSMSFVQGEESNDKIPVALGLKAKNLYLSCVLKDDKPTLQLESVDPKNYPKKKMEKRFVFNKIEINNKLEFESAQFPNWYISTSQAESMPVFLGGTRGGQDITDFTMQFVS

T2: Human VEGF121-His (human, UniProt P15692-9 27-147)
T2 construct: not shown: His tag
T2 sequence (looked up): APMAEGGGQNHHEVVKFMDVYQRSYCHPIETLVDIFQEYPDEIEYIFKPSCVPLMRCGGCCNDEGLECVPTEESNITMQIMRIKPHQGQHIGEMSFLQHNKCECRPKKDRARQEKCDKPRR

T3: human VEGF121 (human, UniProt P15692-9 27-147)
T3 construct: No tag is stated for these preparations; Kept apart from VEGF121-His; also called HuVEGF121
T3 sequence (looked up): T2 sequence (looked up)

B1: bispecific anti-VEGF/anti-IL-1beta Fab fragment 1HVL5.15 (Fab, V domains shown)
VH: DETLVESGGGLVKPGGSLRLSCAAEGMVFKWNDMSWVRQAPGKGLEWVGSISKKGDHKYLNTKFIGRFTISRDNEKDTLYLQMNSLRAEDTAVYYCAKDVGFFDIWGQGTLVTVSS
VL: AIYMHQEPSSLSASVGDRVTITCHGSYWLSSLMAWYQQKPGKAPKLLIYDAKYKHLGVPSRFSGSGSHEDYTLTISSLQPEDFATYYCQQYRYHPYTFGHGTKVEIKR
B2: bispecific anti-VEGF/anti-IL-1beta Fab fragment 1HVL2.3 (Fab, V domains shown)
VH: EQLVESGGGLVKPGGSLRLSCAASGMVFSWNAMSWVRQAPGKGLEWVGSISPKGDHKYLNTKFIGRFTISRDNSKNTLYLQMNSLRAEDTAVYYCAKDIGFFDVWGQGTLVTVSS
VL: B1 VL with S31N, L32Y, M33L, K52S, K54R, H55I, L56I
notes: First expressed in E. coli TG1, later in HEK293
B3: bispecific anti-VEGF/anti-IL-1beta Fab fragment 1HVL12.85 (Fab, V domains shown)
VH: B1 VH with T3Q
VL: B1 VL with M33V, G66K, S67E, H68D, E69Q, D70E, Y71F

Legend:
[1] = target: T4, human IL-1 beta (PeproTech 200-01B) (human, UniProt P01584 117-269); test: SPR, Fab captured via anti-Fab antibody, human IL-1beta injected, 1:1 Langmuir fit; n = 4
T4 construct: As printed it covers only the N-terminal part of the precursor, so it was not used; also called huIL-1 beta; IL1β
Description: (§1) An anti-Fab capturing antibody (GE Healthcare 28958325) was immobilized to a Series S Sensor Chip C1 (GE Healthcare 29104990) using standard amine coupling chemistry resulting in a surface density of approximately 500 resonance units (RU). The bispecific anti-VEGF/anti-IL-1beta Fab fragment was captured to the surface with resulting capture levels of approximately 20 RU. A dilution series ranging from 0.74 to 60 nM (1:3 dilution) of either human IL-1 beta (PeproTech 200-01B) or cynomolgus IL-1 beta (Sino Biological 90010-CNAE) was injected for 90 s, dissociation was monitored for at least 600 s at a flow rate of 30 μl/min. The surface was regenerated by two consecutive injections of 10 mM Glycine pH 2.1 for 60 s each. Bulk refractive index differences were corrected by subtracting blank injections and by subtracting the response obtained from the control flow cell without captured bispecific anti-VEGF/anti-IL-1beta Fab fragment. Curve fitting was performed using the 1:1 Langmuir binding model within the Biacore evaluation software.
Binding kinetics to VEGF and IL-1beta for the candidate antibodies were assessed as described in Example 3 using the indicated bispecific anti-VEGF/anti-IL-1beta Fab fragments (amino acid sequence as illustrated in Table 3). […]

[2] = target: T1, cynomolgus IL-1 beta (Sino Biological …); test: SPR, Fab captured via anti-Fab antibody, cynomolgus IL-1beta injected, 1:1 Langmuir fit
Description: as §1
(§2) Binding kinetics to VEGF and IL-1beta for the candidate antibodies were assessed as described in Example 3 using the indicated bispecific anti-VEGF/anti-IL-1beta Fab fragments (amino acid sequence as illustrated in Table 3). For comparison, antigen binding kinetics of prior art anti-VEGF/anti-IL-1beta antibody 0032, a full length IgG antibody, as disclosed in WO2016/075034 are depicted.

[3] = target: T4, human IL-1 beta (PeproTech 200-01B); test: SPR, Fab captured via anti-Fab antibody, human IL-1beta injected, 1:1 Langmuir fit
Description: as §1, §2

Human VEGF121-His [4] = target: T2, Human VEGF121-His; test: SPR, VEGF121-His captured via anti-His antibody, Fab injected, single cycle kinetics, 1:1 Langmuir fit
Description: (§3) An anti-His capturing antibody (GE Healthcare 28995056) was immobilized to a Series S Sensor Chip C1 (GE Healthcare 29104990) using standard amine coupling chemistry resulting in a surface density of approximately 500 resonance units (RU). As running and dilution buffer, HBS-P+(10 mM HEPES, 150 mM NaCl pH 7.4, 0.05% Surfactant P20) was used. Human VEGF121-His was captured to the surface with resulting ligand densities of approximately 10 and 20 RU, respectively. A dilution series of the bispecific anti-VEGF/anti-IL-1beta Fab fragment (1.2-100 nM, 1:3 dilution) was successively injected for 90 s each, dissociation was monitored for 3600 s at a flow rate of 30 μl/min (single cycle kinetics). The surface was regenerated by injecting 10 mM Glycine pH 1.5 for 60 s. Bulk refractive index differences were corrected by subtracting blank injections and by subtracting the response obtained from the control flow cell without captured human VEGF121. Curve fitting was performed using the 1:1 Langmuir binding model within the Biacore evaluation software. To provide more robust fitting, the Multiple Rmax option was chosen for global fitting using both ligand densities.
as §2

Human VEGF121-His [5] = target: T2, Human VEGF121-His; test: SPR, VEGF121-His captured via anti-His antibody, Fab injected, single cycle kinetics, 1:1 Langmuir fit (same values as Table 1)
Description: as §3, §2

[6] = target: T4, human IL-1 beta (PeproTech 200-01B); test: SPR, Fab captured via anti-Fab antibody, human IL-1beta injected, 1:1 Langmuir fit (same values as Table 1)
Description: as §1, §2

[7] = target: T4, human IL-1 beta (PeproTech 200-01B); test: SPR, Fab captured via anti-Fab antibody, IL-1beta injected 0.74-60 nM, 1:1 Langmuir fit
Description: as §1, §2

VEGF165 = target: T5, VEGF165 (UniProt P15692-4 27-191); test: competition ELISA: Fab preincubated with VEGF165, free VEGF165 bound to coated rhVEGFR-1-Fc detected; sheet title 'Competition ELISA VEGFR1-Fc, 8 pM VEGF165'
T5 construct: also called VEGF165 (Humanzyme, HZ-1153)
Description: (§4) 96-well-Plates (Maxisorp Nunc-Immoplates) were coated with 50 μL/well rhVEGFR-1-Fc (R&D #321-FL-050) at a final concentration of 1 μg/ml in 200 mM NaHC0₃, pH 9.4 for 1 hour at room temperature.
(§5) Meanwhile, antibody Fab fragments of different concentrations were preincubated with VEGF for form an antibody Fab-VEGF premix as follows: A dilution series of antibody Fab fragment was prepared by adding 280 μl of a solution of antibody Fab fragments (409.6 nM antibody in PBST-1% BSA) into the wells of the first column of a round bottom 96-well PS plate. The individual wells of columns 2-12 of the same plate were filled with 140 μl PBST-1% BSA. Subsequently, 1:2 dilutions were performed by transferring 140 μl of the antibody solution into the next column, thorough mixing and proceed with transferring 140 μl of this diluted antibody solution to the next column. This is repeated until column 11. Excess of 140 μl were discarded so that all wells comprise 140 μl. Column 12 served as the control (blank). […] 50 μl of the dilution series of the respective antibody Fab fragment were added to the VEGF121, or VEGF165, respectively; mixed thoroughly and incubated for 1.5 hours at room temperature.
(§6) The rhVEGFR-1-Fc coated plates were washed two times with PBST and blocked for 45 min with 200 μl of 2% MPBST. After washing off the MPBST solution twice with PBST, 50 μl of the antibody Fab-VEGF premix were added to the plate and incubated for 1.5 hours at room temperature. Subsequently, the plates were washed twice with PBST. Then, 50 μl of a solution comprising biotinylated anti-VEGF antibody (R&D, BAF293; 1:2000 dilution in PBST) and SA-HRP (KPL, 14-30-00; 1:2000 dilution in PBST) was added and incubated for 30 min at room temperature. After 6× washing with PBST, 50 μl of TMB substrate solution (two-component HRP substrate (KPL, 34021); used at room temperature) was added and incubated for 30 min at room temperature. 50 μl of 1N H₂SO₄ was added and absorbance was read at 450 nm.

human VEGF121 = target: T3, human VEGF121; test: competition ELISA: Fab preincubated with VEGF121, free VEGF121 bound to coated rhVEGFR-1-Fc detected; sheet title 'Competition ELISA VEGFR1-Fc, 8 pM VEGF121'
Description: as §4, §5, §6

Human VEGF121-His [8] = target: T2, Human VEGF121-His; test: SPR, VEGF121-His captured via anti-His antibody, Fab injected 1.2-100 nM, single cycle kinetics, 1:1 Langmuir fit
Description: as §3, §2

Binder | Kd [2] | koff [2] | kon [2] | t½ [2] | koff [3] | kon [3] | Kd (Human VEGF121-His [4]) | koff (Human VEGF121-His [4]) | kon (Human VEGF121-His [4]) | t½ (Human VEGF121-His [4]) | IC50 (read off the curve) (VEGF165) | IC50 (read off the curve) (human VEGF121) | also measured
B1 | 0.045 nM | 0.000118 s⁻¹ | 2.6e+06 M⁻¹ s⁻¹ | 1.63 h | 0.000107 s⁻¹ | 1.66e+06 M⁻¹ s⁻¹ | 0.01 nM | 1.47e-05 s⁻¹ | 1.53e+06 M⁻¹ s⁻¹ | 13.2 h | – | – | Kd [1]: 0.059 nM; t 1/2 [1]: 1.82 h
B2 | 5.79 nM | 0.0182 s⁻¹ | 3.14e+06 M⁻¹ s⁻¹ | 0.01 h | – | – | – | – | – | – | ~0.2 nM | ~0.08 nM | Kd (Human VEGF121-His [5]): 0.008 nM; koff (Human VEGF121-His [5]): 1.45e-05 s⁻¹; kon (Human VEGF121-His [5]): 1.75e+06 M⁻¹ s⁻¹; t½ (Human VEGF121-His [5]): 13.3 h; Kd [6]: 4.57 nM; koff [6]: 0.0256 s⁻¹; kon [6]: 5.61e+06 M⁻¹ s⁻¹; t 1/2 [6]: 30 s; Kd [7]: 4.57 nM; koff [7]: 0.0256 s⁻¹; kon [7]: 5.61e+06 M⁻¹ s⁻¹; t 1/2 [7]: 30 s; Kd (Human VEGF121-His [8]): 0.008 nM; koff (Human VEGF121-His [8]): 1.45e-05 s⁻¹; kon (Human VEGF121-His [8]): 1.75e+06 M⁻¹ s⁻¹; t 1/2 (Human VEGF121-His [8]): 13.3 h
B3 | 0.02 nM | 6.54e-05 s⁻¹ | 3.34e+06 M⁻¹ s⁻¹ | 2.95 h | 0.000135 s⁻¹ | 4.76e+06 M⁻¹ s⁻¹ | 0.006 nM | 1.51e-05 s⁻¹ | 2.5e+06 M⁻¹ s⁻¹ | 12.7 h | ~0.09 nM | ~0.04 nM | Kd [3]: 0.028 nM; t 1/2 [3]: 1.43 h
